Laboratory results published in patent US20220153819A1 (Regeneron, published 2022).
Like-named read-outs stand apart in the source and are kept apart here.

What was measured:
IsdB.6×(His) [1] = biological target: T1, IsdB.6×(His) (Staphylococcus aureus, UniProt A6QG30 41-613); assay: SPR (Biacore T200), 37C; antibody captured, IsdB.6xHis injected
IsdB.6×(His) [2] = biological target: T1, IsdB.6×(His); assay: SPR (Biacore T200), 25C; bsAb captured, IsdB-6xHis injected
[3] = biological target: T2, human complement component 1q (C1q) (human, UniProt P02745 23-245; P02746 28-253; P02747 29-245); assay: cell-based or functional assay
T2 sequence (P02745 23-245, chain 1 of 3): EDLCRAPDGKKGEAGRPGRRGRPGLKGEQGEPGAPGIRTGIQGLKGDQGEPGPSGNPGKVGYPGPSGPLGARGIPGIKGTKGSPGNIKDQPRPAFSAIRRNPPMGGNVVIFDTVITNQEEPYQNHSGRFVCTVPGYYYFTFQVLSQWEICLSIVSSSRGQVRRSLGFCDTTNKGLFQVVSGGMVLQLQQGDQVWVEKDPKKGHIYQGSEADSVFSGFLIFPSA
T2 sequence (P02746 28-253, chain 2 of 3): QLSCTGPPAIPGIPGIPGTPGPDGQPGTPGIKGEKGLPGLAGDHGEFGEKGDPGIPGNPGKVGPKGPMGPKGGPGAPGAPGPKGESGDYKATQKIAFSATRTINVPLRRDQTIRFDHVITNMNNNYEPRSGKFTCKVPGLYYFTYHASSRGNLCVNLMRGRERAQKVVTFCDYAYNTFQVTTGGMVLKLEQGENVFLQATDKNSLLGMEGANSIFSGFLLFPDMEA
T2 sequence (P02747 29-245, chain 3 of 3): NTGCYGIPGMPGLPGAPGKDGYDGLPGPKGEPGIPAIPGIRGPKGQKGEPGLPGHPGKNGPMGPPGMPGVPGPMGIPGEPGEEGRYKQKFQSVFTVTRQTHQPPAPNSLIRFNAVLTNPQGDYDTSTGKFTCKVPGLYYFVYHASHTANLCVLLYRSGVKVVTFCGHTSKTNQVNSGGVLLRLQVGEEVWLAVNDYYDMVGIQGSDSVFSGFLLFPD

[4] = biological target: T2, human complement component 1q (C1q)
IsdB.6×(His) [5] = biological target: T1, IsdB.6×(His); assay: SPR (Biacore T200), 37C; bsAb captured, IsdB-6xHis injected
IsdB.6×(His) [6] = biological target: T1, IsdB.6×(His); assay: SPR (Biacore 8k), 37C; IsdB-6xHis captured via anti-His, bsAb injected
[7] = biological target: T3, hemagglutinin (HA) on A/Puerto Rico/08/1934 (H1N1)-infected MDCK cells (Influenza A virus A/Puerto Rico/08/1934 …, UniProt P03452 18-565); assay: cell ELISA on fixed A/Puerto Rico/08/1934 (H1N1)-infected MDCK cells
T3 construct: whole, on cells; also called Influenza HA

mouse C1q = mouse C1q (mouse, UniProt P98086 23-245; P14106 26-253; Q02105 30-246); assay: not described
mouse C1q, sequence (P98086 23-245 limits assumed, chain 1 of 3): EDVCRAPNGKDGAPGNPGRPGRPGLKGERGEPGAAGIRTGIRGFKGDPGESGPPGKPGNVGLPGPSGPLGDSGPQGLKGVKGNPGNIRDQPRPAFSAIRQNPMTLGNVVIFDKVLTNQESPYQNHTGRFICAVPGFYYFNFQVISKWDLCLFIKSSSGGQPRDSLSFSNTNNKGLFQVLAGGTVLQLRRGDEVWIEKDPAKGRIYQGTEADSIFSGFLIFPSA
mouse C1q, sequence (P14106 26-253 limits assumed, chain 2 of 3): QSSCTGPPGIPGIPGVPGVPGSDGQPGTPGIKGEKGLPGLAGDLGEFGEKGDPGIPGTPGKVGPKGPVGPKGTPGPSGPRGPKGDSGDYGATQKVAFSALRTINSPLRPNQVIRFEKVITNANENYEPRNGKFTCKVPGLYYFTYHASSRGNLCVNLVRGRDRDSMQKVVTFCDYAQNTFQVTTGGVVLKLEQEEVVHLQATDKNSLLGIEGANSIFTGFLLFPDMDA
mouse C1q, sequence (Q02105 30-246 limits assumed, chain 3 of 3): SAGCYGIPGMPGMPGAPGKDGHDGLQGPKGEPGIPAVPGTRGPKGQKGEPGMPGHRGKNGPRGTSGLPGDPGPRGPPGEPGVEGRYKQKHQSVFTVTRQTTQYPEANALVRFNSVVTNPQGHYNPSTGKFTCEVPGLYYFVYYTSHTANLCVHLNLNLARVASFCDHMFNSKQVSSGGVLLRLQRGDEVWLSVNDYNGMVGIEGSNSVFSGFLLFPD

biotinylated human C1q [8] = biological target: T4, biotinylated human C1q (human, UniProt P02745 23-245; P02746 28-253; P02747 29-245)
T4 construct: also called Bt hC1q; bt-hC1q
T4 sequence (P02745 23-245, chain 1 of 3): as the sequence (P02745 23-245, chain 1 of 3) above
T4 sequence (P02746 28-253, chain 2 of 3): as the sequence (P02746 28-253, chain 2 of 3) above
T4 sequence (P02747 29-245, chain 3 of 3): as the sequence (P02747 29-245, chain 3 of 3) above

[9] = biological target: T2, human complement component 1q (C1q); assay: SPR (Biacore T200), 37C; bsAb captured via anti-human F(ab')2, hC1q injected
[10] = biological target: T3, hemagglutinin (HA) on A/Puerto …; assay: cell-based or functional assay
biotinylated human C1q [11] = biological target: T4, biotinylated human C1q; assay: SPR (Biacore), 37C; biotinylated hC1q captured at low density, bsAb injected
biotinylated human C1q [12] = biological target: T4, biotinylated human C1q; remark: listed apart in the source
[13] = biological target: T2, human complement component 1q (C1q); assay: SPR (Biacore T200), 25C; bsAb captured via anti-human F(ab')2, hC1q injected
IsdB.6×(His) [14] = biological target: T1, IsdB.6×(His); assay: SPR (Biacore), 37C; IsdB.6xHis captured, bsAb injected
[15] = biological target: T2, human complement component 1q (C1q); remark: listed apart in the source
[16] = biological target: T5, IsdB on the surface of S. aureus Newman Δspa (Staphylococcus aureus, UniProt A6QG30 41-613); assay: ELISA, plate coated with S. aureus Newman Δspa, luminescence
T5 construct: whole, on cells; also called iron-regulated surface determinant protein B

IsdB.6×(His) [17] = biological target: T1, IsdB.6×(His); assay: SPR (Biacore 8k), 25C; IsdB-6xHis captured via anti-His, bsAb injected

B1: REGN5066, anti-IsdB x anti-C1q bispecific antibody (bispecific antibody, V domains shown)
VH 1: EVQLVESGGGLVQPGRSLRLSCTTSGFTFDDYAMHWVRQVPGQGLEWVAGLSWNSDTIGYADSVKGRFTISRDNAKNSLYLQMKSLKAEDTALYYCTKDFYHSLNNWNYYYFDYWGQGTLVTVSS
VH 2: EVQLVESGGGVVQPGGSLRLSCAASGFSLDDYAMHWVRQTPGKGLEWVSLISGDGSRTSYADSVKGRFTISRDNSKNSLYLKMNSLRTEDTALYYCTKDPHNSNWFDPWGQGTLVTVSS
VL: not shown
notes: also called bsC1q × IsdB; bs hC1q × IsdB
Kd (IsdB.6×(His) [1]): 3.43 nM
T1/2 (IsdB.6×(His) [1]): 21 min
koff (IsdB.6×(His) [1]): 0.000557 s⁻¹
kon (IsdB.6×(His) [1]): 163000 M⁻¹ s⁻¹
Kd (IsdB.6×(His) [2]): 2.36 nM
koff (IsdB.6×(His) [2]): 0.00027 s⁻¹
kon (IsdB.6×(His) [2]): 115000 M⁻¹ s⁻¹
t1/2 (IsdB.6×(His) [2]): 42.8 min
C1q deposition on S. aureus (plate-based, anti-C1q detection), EC50 [3]: 0.127 nM
Kd [4]: 1.56 nM
T1/2 [4]: 2.3 min
koff [4]: 0.00502 s⁻¹
kon [4]: 3.22e+06 M⁻¹ s⁻¹
Kd (IsdB.6×(His) [5]): 3.43 nM
koff (IsdB.6×(His) [5]): 0.000557 s⁻¹
kon (IsdB.6×(His) [5]): 163000 M⁻¹ s⁻¹
t1/2 (IsdB.6×(His) [5]): 20.7 min
Kd (IsdB.6×(His) [6]): 7.52 nM
koff (IsdB.6×(His) [6]): 0.00657 s⁻¹
kon (IsdB.6×(His) [6]): 874000 M⁻¹ s⁻¹
t½ (IsdB.6×(His) [6]): 1.8 min
Maximum binding (RLUs) [7]: 2500 RLU
binding result (mouse C1q): no binding
Kd (biotinylated human C1q [8]): 402 nM
koff (biotinylated human C1q [8]): 0.0366 s⁻¹
kon (biotinylated human C1q [8]): 91100 M⁻¹ s⁻¹
t1/2 (biotinylated human C1q [8]): 0.32 min
koff [9]: 0.00502 s⁻¹
kon [9]: 3.22e+06 M⁻¹ s⁻¹
t1/2 [9]: 2.3 min
CDC EC50 (H1N1-infected MDCK cells) [10]: > 889 nM
Maximum percent specific lysis (CDC of H1N1-infected MDCK cells) [10]: -6.15%
Kd (biotinylated human C1q [11]): 3670 nM
T1/2 (biotinylated human C1q [11]): 0.12 min
koff (biotinylated human C1q [11]): 0.0964 s⁻¹
kon (biotinylated human C1q [11]): 26200 M⁻¹ s⁻¹
Kd (biotinylated human C1q [12]): 666 nM
koff (biotinylated human C1q [12]): 0.0782 s⁻¹
kon (biotinylated human C1q [12]): 117000 M⁻¹ s⁻¹
t1/2 (biotinylated human C1q [12]): 0.15 min
Kd [13]: 0.842 nM
koff [13]: 0.00211 s⁻¹
kon [13]: 2.51e+06 M⁻¹ s⁻¹
t1/2 [13]: 5.5 min
Kd (IsdB.6×(His) [14]): 7.52 nM
T1/2 (IsdB.6×(His) [14]): 1.8 min
koff (IsdB.6×(His) [14]): 0.00657 s⁻¹
kon (IsdB.6×(His) [14]): 874000 M⁻¹ s⁻¹
Kd [15]: 3.23 nM
T1/2 [15]: 3.5 min
koff [15]: 0.00334 s⁻¹
kon [15]: 1.03e+06 M⁻¹ s⁻¹
EC50 [16]: 0.19 nM
Kd (IsdB.6×(His) [17]): 2.3 nM
koff (IsdB.6×(His) [17]): 0.00105 s⁻¹
kon (IsdB.6×(His) [17]): 457000 M⁻¹ s⁻¹
t1/2 (IsdB.6×(His) [17]): 11 min
